Data reported in the DeepSol protein solubility set.

Assay: soluble on expression in E. coli; label from the status in PepcDB or PDB records

Sequence | soluble on expression in E. coli
MKLLALVALCAVGVASHRDKRQLSIGTISVSGAGGSTGCVVTGNVLYANGIRLRNLTSSEQSELATYQTEVEQYKTQLRNILSQRRENLRNRLMSQGRNQQQQSNDVSSQGGNDDGSIPKAPEKPSFCTAEDTTQYYFDGCMVQGNKVYVGGQYARDLSSDEISELQTFDTQQTAYQNAVQSQMQSQVQGLFGGSDFLSALFGGDRFNQQQQRQQPSSTTPASTSSTTLPPKPTVPQFCTAIF | not soluble
MSLRIVKVRTFHVRPRWLFVAVETDKGVIGWGEAVVEGQARVVERMIGDLAEYLAGRDPRRIEHHWQGMYRGAFYRGGAVLCSAISGIDQALWDITARDLGVPVHALLGGAVRDSVRMYGHARGVTDAEFAHAARRSRSAGMTAIKFGLDGPVRALDTVEYVDRQVARVAAVREAVGPAFDIALDFHGRTSPAMARRLAERLSPMGPLFIEEPCLPENVDALAEIARATNVPIAAGERIFTKWGFRELLERRAVSVVQPDLCHAGGISEVRRIAAMAEAHYVALAPHNPLGPVSLAACLQVAASTPNFLIQEYLALDDGADLGAGILAVPFSVENGHIAVPTGPGLGIEVDEAQLMDRVYAGDWTTPRFTHQDGSHGDWEGHHHHHH | not soluble
MSLSQLAYEKILNLIINGKYKPGNLLKEDELANTLNISRTPVREALARLERDGIIIKSGKSYSVIPLSAEDIIQIYEIRIPLEAEASKLASIRGTEEELKKMLDIIEEIKRVKEDAEPLTLAELNGKLHRTISEASHNKFLADILENIRLKLKIVRVTLFTSFQRREEELREHSEIVTAIIERNPDKAYQLMKEHELNVLEYVKKNILPILFR | soluble
MSTMSSPIYIQIHNQIKQAIEAGRWAVGDRIPSERELATQFDVSRMTLRQAIQTLVDEGILERRVGAGTFVANQKVQEKMSGVTSFTDLMLAQGKVPSSKTISYHVTSPSLSESEKLALGANEQVLRMERIRYGDDVPICFEVATVPERLVKQFTKDEITSSLYRTLEEKASLVPGKAQQTVSAMSASERIAEYLSVRRGDALLRLRQISYLQTGEPFEYVRTQYVGNRFEFYLEK | not soluble
MVSEIVVDVGINEKRVALLEDRELVELFIERNDCERLVGNIYRGRVESVLPGMQAAFIDIGYEKNAFLYVGDAIPQKEFSEDDEEIYSDVKSYNIEEILRPGQEITVQVTKEPIGTKGPRVTTHITLPGRQMVLLPNADYIGISRRIEDEEERAKLRKIAEKIKPKNMGIIVRTVSEGKREEDFKSDLNFLVKLWAKIKQREQSGPVPRCLHKDLSVIYRAVRDIFTWNIDRFVINDRQEYNKVLELVEMISPALKMRVEYFNKNIDLFEYYQIDSMIQKALAKKVWLKCGGYIVIERTEALTVIDVNTGKYVGVNNLEDTVLRTNLDAVKEIGKQLRLRDIGGIIIIDFIDMHDPEHQKQVLEALKQVLKKDRTKTTVVGMTGLGLIEMTRKKVREGLESMMLQDCPYCEGRGKILSPESVARNVEKEISKYFTKTIANAIMVEVHPTVAEVLRGEDNDNLARIQNLFNKKVIIKPSAEVGHEEVKGSCKIKCRNI | not soluble
MALSEQSKDLSDPNFAAEAPNSEVHSSPGVSEGVPPSATLAEPQSPPLGPTAAPQAAPPPQAPNDEGDPKALQQAAEEGRAHQAPSAAQPGPAPPAPAQLVQKAHELMWYVLVKDQKKMIIWFPDMVKDVIGSYKKWCRSILRRTSLILARVFGLHLRLTSLHTMEFALVKALEPEELDRVALSNRMPMTGLLLMILSLIYVKGRGARESAVWNVLRILGLRPWKKHSTFGDVRKLITEEFVQMNYLKYQRVPYVEPPEYEFFWGSRASREITKMQIMEFLARVFKKDPQAWPSRYREALEEARALREANPTAHYPRSSVSEGHHHHHH | soluble
GGNLEEMNIDPDNATQTHPKLLLTQICMNAFKRGTDGMYATKKVIQADGESADQYYKWTRGSFGYYDNLRNVQKMGEEAERVNAPVYTALTKFFRAYYFYELTLRFGDIPYSQALKGEKEEIYTPEYDAQEDVFAGILQELREADEILANDASVIDGDIIYNGNSTQWRKLINSFRLKVLMTLSNHTTVGNINIASEFKNIATNSPLMNSLADNGQLVYLDQQGNRYPQFNAQWSGYYMDDTFIQRMRERRDPRLFIFSAQTNKGKTEGKPIDDFSSYEGGDPAAPYSDAIIKVSEGTISPINDRFRTDPIVEPTMLMGYAELQQILAEAVVRGWISGNAQTYYEKGIRASFSFYETHAKDYAGYLNENAVAQYLKEPLVDFTQASGTEEQIERIIMQKYLVTFYQGNWDSFYEQLRTGYPDFRRPAGTEIPKRWMYPQGEYDNNGTNVETAITRQFGAGNDKINQATWWQKKS | soluble
MVNKEHFSKKFDADLEEIRTRVLQMGGLVEEQIKNAIEALTEGNEHMIEQVIDNDHRVNAMEVKIDELCSQIIVRRQPTAIDLRMIMTVINTITDLERIGDEAAKIARMAKLIYAADRMYTPRFVEIRHIAAIAMDMLRKALDAFARVDPNASAEIVRQDEQVDEEFRSIIRHLVTFMMEDPRKISTAIEILFAAKAVERIGDHAKNMSEYVVYMVKGKDVRHVSADEIEREVGK | not soluble
MGSDKIHHHHHHMAKIGIVICNYNKQNDVIDCIQSVLESKYEDYHIYVVDNASTDESVRLIRECYGSCDRLTLIENSENLGGSGGFNTGLRVAMAEGHMYLMCVDNDALLDENCIGTLSDFLDSHEKAGIAAAKIYHTGQENYVQQYGSFIDYDNYSVDSTYLNHIEDGSMPDVVYSDAVPACALMIRRTVVEQIGVMPEENFLYWDDTEWCVRCREAGYEVASVGAAAASHAMGAKKEDINTFPTYYAWRNWIKFFLDHIDEERLSDMAETFLGSIFEINYTDLYRGEENRSKTVMAALDDALHKVMGKAKEDRIFNLELTYDGLERAIGDKSDIAIMAGEFPLYADALKEKIKVMWPDKRVYIVGLQDIDEAYGTAHFQPDATITICESIFRQDDLSLSTYVMDLDGNVLVDEDDVLMVINYNFSRRSFIFSMKPLFMRLSRQNYGF | not soluble
MKIAFLFRTSPHGTSISREGLDAILAATAFCEPNDIGIFFIDDGVLNLIDNQQPEIIQQKDFIRTFKLLDLYDVEQRFICTASLQKFKLDNRELILSCEKIDRSLLLEKLNQAGKLFTF | not soluble
MYSISFQEDSLLPRERLAKEGVEALSNQELLAILLRTGTRQASVFEIAQKVLNNLSSLTDLKKMTLQELQSLSGIGRVKAIELQAMIELGHRIHKHETLEMESILSSQKLAKKMQQELGDKKQEHLVALYLNTQNQIIHQQTIFIGSVTRSIAEPREILHYAIKHMATSLILVHNHPSGAVAPSQNDDHVTKLVKEACELMGIVLLDHLIVSHSNYFSYREKTDLI | not soluble
MEYGIVYLLTNPVMPGLVKIGMTTQEGIDKRMKELYTTGVPIPFECKFACKVKKSDCLKIEKALHKAFDPQRINQNREFFRINVEQAQAILELFHHEDVTEEVTDEIQNDLTDEDKAASTKAQAKRPPLNFYEMGLQKGDILIWKDDPSISVTVLSERKVCYEGEETSISALSAKLKGYKVKHIQPTPHWFFNDRSLSEIYDETYPFEE | not soluble
MYKHIVKRGETIASIARDYRTSVEALLRANGLTAASVIFPGQEIVIPHLPPKGSIPYTIHISISRRQLTLKHRGRTIRTYPIGVGKMVTATPVGDFVIVNRQPNPGGPFGAMWLSLSKIHYGIHGTNDPSSIGKYVSKGCIRMHNKDVLELASIVPNGTEVFIRP | not soluble
MARIIVVTSGKGGVGKTTSSAAIATGLAQKGKKTVVIDFDIGLRNLDLIMGCERRVVYDFVNVIQGDATLNQALIKDKRTDNLYILPASQTRDKDALTKEGVEKVLNDLGEMNFEFVVCDSPAGIESGALMALYFADEAVITTNPEVSSVRDSDRILGILSSKSRRAENSQEPIKEHLLLTRYNPGRVNRGDMLSMEDVLDILRIPLVGVIPEDQSVLRASNQGEPVILDKESDAGKAYEDTVDRLLGEERPFRFVEEEKKGFLKRLFGG | not soluble
GPGSMSTWEQAVEEADKAFAKRDCKAVCEIIEKAESDGTCHVQLMWRRARALHTLGDESLDKSEKERYARDAAVAAERAVEEDPTSAEANLWKAICIGILCDYLTTKERMSNVYVIRDHLLRSLELKSDNPDALHGMGMWSLSLLQISWFERSAASLLFGSLPTVSHEECLKYFLASHELRPSIRNCLALGNLFRYQGNWTEAKTWYQKALDIPAETHAHKQKQDEAVQLLNSC | soluble
MGSDKIHHHHHHMDRFDLGIVKVHRIEEWRGTFSPPAELFDGFSPDGWEPHAEEFAPEYYDPVSGKLFAFLQSWVLDTGTQRILFDTGAGNDKDRPNLPIFGNLQTGFLDNLAAAGFQPEDIDVVVCSHIHVDHVGWNTRLVDGRWEPTFRNARYVLPLADRAYWDPQDASAGPAGIGAAVNAGMFDDSVRPIIEAGRAEWAEDGFEVAEGLVLRSCPGHTPGSMMLEVSGGEDTAMFVGDVVHHPAQIYRPEWNSIFCEAPEDARETRRRVLDLAASREALLIPAHFGGSHMARVLRDGSGFRPVLDPMGSG | not soluble
SLKTLFEVKQLLKQYGAFIYTRDLDADMQLMQMEMEELHRLGLIERGEFQQAMLVLKREQRAAKMGERAND | soluble
MGSDKIHHHHHHMTTVIAGVSGAIGGALARRYLSSYPDRSLIGLCRRPETAPDDLRNHSGVRLMAWDAEDEQRLDVAEFKAVLEASGPVYTVIYAGGLLHDGQMFPEKRLEDIDGRSMMRSYQVNCLGFVSLMQRLAPALRGKHFKRIAAVSAKVGSISDNQLGGWYAYRASKAALNMVVKNLSIELSRRYAPLACVSLHPGTTLSSLSQPFQQSLEQLTVHEPEQTASNLFSVLESLDARDNGRFISWDGSDLPW | not soluble
MGSDKIHHHHHHLYTYLQYIQSSVQTDVGFCVDGAKNLENMYESTKAVGSGPVKRQAGYGASSPSRASGSHPAPSPYDAASTSSSSSSDSCCSCGIGLAGPAGFPGRPGRDGIDGPAGKPGRDGQDLDGESSSDGSQIELDCPAGPPGPPGNPGPQGNSGRPGMDGMPGRNGRCGRPGEQGERGPNGEDGRPGRRGDDGMPGTVNEIPGQAGPPGLRGAPGATGSQGPRGNDGRPGNKGPAGPPGDQGFDGAPGGPGADGEPGAQGPLGAKGECSHCPPPRTAPGY | not soluble
MTDQLRLMAVHAHPDDESSKGAATMAKYVSEGVDVLVVTCTGGERGSILNPKLQGDAYIEENIHEVRRKEMDEAREILGVGQEWLGFVDSGLPEGDPLPPLPEGCFALEDVDKAAGELVRKIRSFRPQVITTYDENGGYPHPDHIMTHKITMVAFEGAADTEKYPESEYGTAYQPLKVYYNQGFNRPRTEALHHALLDRGLESPYEDWLKRWSEFERKERTLTTHVPCADFFEIRDKALIAHATQIDPEGGWFRVPMEIQKEVWPTEEYELAKSLVETSLPEDDLFAGIRDNALEHHHHHH | not soluble
MALKKHNVFVFSSNYTLYGDMSQRVMNTLAEFTPEIEVYSIDESFLNFEGFELLGDLKIYGTTIRNTVFRNTGIPVSIGIAPTKALAKLSNRIAKKNKEYNHVCVLEHHHHHH | not soluble
MGSDKIHHHHHHMKEIVEQNIFNEDLSQLLYSFIDSKETFSFAESSILHYVVFGGENLDVATRLGAGIEILILSSDIMDDLEDEDNHHALWMKINRSESLNAALSLYTVGLTSIYSLNNNPLIFKYVLKYVNEAMQGQHDDITNKSKTEDESLEVIRLKCGSLIALANVAGVLLATGEYNETVERYSYYKGIIAQISGDYYVLLSGNRSDIEKNKHTLIYLYLKRLFNDASEDLLYLISHKDLYYKSLLDKEKFQEKLIKAGVTQYISVLLEIYKQKCISAIEQLNLDKEKKELIKECLLSYTKGDTRCKT | not soluble
